Source: paper doi:10.1101/2025.11.03.686288

How the values were obtained:
[1] = molecular target: N-terminal GST-tagged PEX38 full-length (T. brucei); experiment: AlphaScreen or HTRF
[2] = molecular target: TbPEX38 (65-134) (T. brucei); experiment: ITC
[3] = molecular target: C-terminal His6-tagged PEX19 full-length (T. brucei); experiment: AlphaScreen or HTRF

C-terminal His6-tagged PEX19 N50 (domain or fragment)
fold weaker interaction with PEX38^FL than PEX19^FL (AlphaScreen signal) [1]: 10 fold

TbPEX19 (1-50-SGGY) (domain or fragment)
Kd [2]: 3000 nM

GST-PEX3Δ1-44 (domain or fragment)
fold higher affinity for PEX19 than PEX38 [3]: 30 fold

untagged PEX38 full-length (natural protein)
IC50 [3]: 950 nM

TbPEX38 (65-134) (domain or fragment)
IC50 [3]: 446 nM
